# Measured values as given in patent US9926375B2, “Anti-endoglin antibodies and uses thereof” (Tracon Pharmaceuticals, Inc., priority 2014, dated 2018).
# “Also recorded” adds a separate entry of the source.
# T1: human CD105 (Homo sapiens, UniProt P17813)
# T1 construct: purchased R&D Systems 1097-EN
# T1 sequence (P17813 26-586 limits assumed): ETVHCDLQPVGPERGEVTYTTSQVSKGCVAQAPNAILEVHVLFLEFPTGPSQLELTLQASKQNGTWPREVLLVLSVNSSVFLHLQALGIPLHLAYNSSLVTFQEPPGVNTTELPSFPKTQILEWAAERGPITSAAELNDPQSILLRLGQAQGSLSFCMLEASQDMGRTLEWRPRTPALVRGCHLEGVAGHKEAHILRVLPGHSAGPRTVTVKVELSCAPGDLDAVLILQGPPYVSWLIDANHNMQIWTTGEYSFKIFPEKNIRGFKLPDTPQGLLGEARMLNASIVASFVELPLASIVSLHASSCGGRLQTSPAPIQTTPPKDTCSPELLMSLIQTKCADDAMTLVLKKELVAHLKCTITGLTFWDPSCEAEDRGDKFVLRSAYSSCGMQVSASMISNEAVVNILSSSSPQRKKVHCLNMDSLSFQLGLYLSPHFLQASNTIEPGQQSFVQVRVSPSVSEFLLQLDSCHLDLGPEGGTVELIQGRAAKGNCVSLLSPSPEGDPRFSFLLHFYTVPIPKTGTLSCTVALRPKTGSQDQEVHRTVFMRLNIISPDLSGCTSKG
# Legend:
# human CD105 [1] = target: T1, human CD105; experiment: ELISA binding of biotinylated TRC205 antibody to human CD105; conditions: from the binding curve
# Procedure: An ELISA was established to determine the binding of biotinylated TRC205 antibody to human CD105 as follows: The TRC205 antibody (SEQ ID NO 89/SEQ ID NO 93; IgG4) was biotinylated using a Lightning-Link Biotin Conjugation Kit (Type A) (Innova Biosciences Cat. No. 704-0010) according to the manufacturer's instructions. […] After washing three times with PBST, a three-fold dilution series of biotinylated TRC205 antibody (10 μg/ml to 0.014 μg/ml) in PBST/2% BSA was added in duplicate to the plate. Following incubation for 1 hour at room temperature, the plate was washed three times with PBST and binding of the biotinylated TRC205 antibody was detected using streptavidin-HRP (Sigma Cat. No. 55512) and TMB substrate (Sigma Cat. No. T0440). OD450 nm values were measured on a Dynex MRX TCII plate reader.
# human CD105 [2] = target: T1, human CD105; experiment: Competition ELISA against biotinylated TRC205 antibody for binding to human CD105; conditions: biotinylated TRC205 55 ng/ml
# Procedure: After washing three times with PBST, a three-fold dilution series of either human BMP9 (R&D Systems Cat. No. 3209-BP-010) (413 nM to 0.56 nM), or unlabelled TRC205 antibody (40 nM to 0.05 nM) or a single concentration of an irrelevant antibody (66 nM) was mixed with a fixed concentration of biotinylated TRC205 antibody (55 ng/ml) and added to the plate. Following incubation for 1 hour at room temperature, the plate was washed three times with PBST and binding of the biotinylated TRC205 antibody was detected using streptavidin-HRP (Sigma Cat. No. 55512) and TMB substrate (Sigma Cat. No. T0440). OD450 nm values were measured on a Dynex MRX TCII plate reader.
# NASH mice = experiment: Murine model of non-alcoholic steatohepatitis (NASH; STZ and high fat diet); type: in vivo, mouse
# Description: The purpose of this study was to examine the protective effects of endoglin antibodies on a murine model of NASH.
# NASH was established by a single subcutaneous injection of STZ (Sigma, USA) after birth and feeding with a high fat diet (HFD; CLEA Japan, Japan) ad libitum after 4 weeks of age (day 28±2).
# Randomization of mice into 6 groups of 10 mice was done at 9 weeks of age (day 63±2), the day before the start of treatment.
# Group 3 (Positive control; Temlisartan Group): Ten NASH mice were be orally administered pure water supplemented with telmisartan at a dose of 10 mg/kg once daily from day 63 to 84.
# Group 4 (Antibody M1043: M1043 Group): Ten NASH mice were intravenously administered vehicle supplemented with Antibody M1043 at a dose of 10 mg/kg twice weekly at day 63, 66, 70, 73, 77 and 80.
# Group 5 (Antibody TRC105; TRC105 Group): Ten NASH mice were intravenously administered vehicle supplemented with Antibody TRC105 at a dose of 10 mg/kg twice weekly at day 63, 66, 70, 73, 77 and 80.
# Group 6 (Antibody TRC205; TRC205 Group): Ten NASH mice were intravenously administered vehicle supplemented with Antibody TRC205 at a dose of 10 mg/kg twice weekly at days 63, 66, 70, 73, 77 and 80.
# Mice in all groups were terminated for the following assays at 12 weeks of age.
# H&E staining of liver tissue was conducted to estimate NAFLD Activity score.
# Total NAS score represents the sum of scores for steatosis, lobular inflammation, and ballooning, and ranges from 0-8. Diagnosis of NASH (or, alternatively, fatty liver not diagnostic of NASH) should be made first, then NAS is used to grade activity. In the reference study, NAS scores of 0-2 occurred in cases largely considered not diagnostic of NASH, scores of 3-4 were evenly divided among those considered not diagnostic, borderline, or positive for NASH. Scores of 5-8 occurred in cases that were largely considered diagnostic of NASH.
# Statistical tests were performed using Bonferroni Multiple Comparison Test. P values<0.05 were considered statistically significant.
# [3] = liver gene expression, mean ± SD, Normal-Vehicle 1.0
molecule,measurement,setting,value
"TRC205: humanized and deimmunized anti-endoglin antibody (SEQ ID NO 89/SEQ ID NO 93; IgG4) (antibody, V domains shown) VH: EVQLVESGGGLVKPGGSLRLSCAASGFTFSDAWMDWVRQAPGKGLEWVGEARSKASNHATYYAESVKGRFTISRDDSKNTLYLQMNSLKTEDTAVYYCTRWRRFFDSWGQGTLVTVSS VL: DIQMTQSPSSLSASVGDRATITCRASSSVSYMHWYQQKPGKAPKPWAYATSNLASGVPSRFSGSGSGTDYTLTISSLQPEDFATYYCQQWSSNPLTFGGGTKVEIK",EC50 of binding to human CD105,human CD105 [1],0.046 mg/L
same,IC50 of competition with biotinylated TRC205 antibody,human CD105 [2],0.26 mg/L
same,Alpha-smooth muscle actin mRNA expression levels compared with the NASH-Vehicle group,"NASH mice; Bonferroni, P<0.05",significantly down-regulated
same,Liver triglyceride contents compared with the NASH-Vehicle group,"NASH mice; Bonferroni, P<0.05",significant decreases
same,Mean liver-to-body weight ratio compared with the NASH-Vehicle group,"NASH mice; Bonferroni, P<0.05",tended to decrease; also recorded: no significant difference
same,NAS compared with the NASH-Vehicle group,"NASH mice; Bonferroni, P<0.05",significant decreases in NAS; also recorded: significant reductions of NAS
same,Serum alanine aminotransferase (ALT) levels compared with the NASH-Vehicle group,"NASH mice; Bonferroni, P<0.05",tended to decrease
same,Serum alkaline phosphatase (ALP) levels compared with the NASH-Vehicle group,"NASH mice; Bonferroni, P<0.05",significant decrease
same,Serum aspartate aminotransferase (AST) levels compared with the NASH-Vehicle group,"NASH mice; Bonferroni, P<0.05",tended to decrease
same,Tissue inhibitor of metalloproteinase-1 mRNA expression levels compared with the NASH-Vehicle group,"NASH mice; Bonferroni, P<0.05",tended to decrease
same,Tumor necrosis factor-alpha mRNA expression levels compared with the NASH-Vehicle group,"NASH mice; Bonferroni, P<0.05",tended to increase
same,F4/80-positive signals and cells in liver compared with the NASH-Vehicle group,"NASH mice; F4/80 immunostaining, macrophage marker",Lower F4/80-positive signals and positive cells
same,Alpha-SMA mRNA expression,NASH mice; [3],1.1 ± 0.3
same,MCP-1 mRNA expression,NASH mice; [3],9.3 ± 9.1
same,TIMP-1 mRNA expression,NASH mice; [3],6.0 ± 2.6
same,TNF-α mRNA expression,NASH mice; [3],6.2 ± 2.4
same,Liver triglyceride,NASH mice; mean ± SD,29.3 ± 9.4 mg/g liver
same,Serum ALP,NASH mice; mean ± SD,264 ± 63 U/L
same,Serum ALT,NASH mice; mean ± SD,28 ± 16 U/L
same,Serum AST,NASH mice; mean ± SD,83 ± 41 U/L
same,Sirius red-positive area,"NASH mice; mean ± SD, liver sections",0.93 ± 0.14%
same,NAS (NAFLD Activity score),"NASH mice; mean ± SD, range 0-8, 10 mg/kg",3.6 ± 1.1
same,"Lobular inflammation score 0, number of mice",NASH mice; score 0 = No Foci,5
same,"Hepatocyte ballooning score 0, number of mice",NASH mice; score 0 = None,1
same,"Steatosis score 1, number of mice",NASH mice; score 1 = 5-33%,6
same,"Hepatocyte ballooning score 1, number of mice",NASH mice; score 1 = Few balloon cells,4
same,"Lobular inflammation score 2, number of mice",NASH mice; score 2 = 2-4 foci/200x,4
same,"Steatosis score 2, number of mice",NASH mice; score 2 = >33-66%,3
same,"Hepatocyte ballooning score 2, number of mice",NASH mice; score 2 = Many cells/prominent ballooning,4
same,Inflammatory cell infiltration in the liver,NASH mice; summary of lobular inflammation score and F4/80 immunostaining,reductions in inflammatory cell infiltration in the liver
